The values that follow come from paper PMC9200798.

For one data set, the system named is P45520. Nature of the data set: microfluidics-coupled TIRF microscopy of single filaments; barbed end depolymerization of ADP-Pi filaments, F-buffer with KCl replaced by 40 mM K2HPO4 and 10 mM KH2PO4. Conditions: other: microfluidics-coupled TIRF microscopy of single filaments.
For data set [1], the target named is Leishmania major actin (Leishmania major) (UniProt P45520). Nature of the data set: microfluidics-coupled TIRF microscopy of single filaments; barbed end polymerization from surface-anchored spectrin-actin seeds, G-actin with equimolar profilin in F-buffer (5 mM Tris-HCl pH 7.4, 50 mM KCl, 1 mM MgCl2); segmented, mixed or ATP-ATTO-488 filaments.
For data set [2] the target is unchanged. The experiment in a line: microfluidics-coupled TIRF microscopy of single filaments; pointed end depolymerization: pre-polymerized ADP-F-actin injected over 10 nM biotin-gelsolin held on neutravidin, F-buffer with 0.4 mM CaCl2, then F-buffer.
The target is the same in data set [3].
Data set [4] addresses rabbit skeletal muscle α-actin (rabbit (Oryctolagus cuniculus)) (UniProt P68135).
In data set [5] the target is Leishmania major actin (Leishmania major) (UniProt P45520). This is another data set of the same source.

With Leishmania major actin, in the data set with P45520, the “barbed end depolymerization rate, ADP-Pi-actin” value is listed as roughly 6 subunits/s.

The substance “Leishmania major actin (from UniProt P45520 2-376) (natural protein)” showed a barbed end polymerization rate constant (with equimolar LmProfilin) (subunits/s/μM) in data set [1] of 6. The pointed end depolymerization rate, ADP-actin in data set [2] came out at 3.5 subunits/s.

Take “Leishmania major cofilin (natural protein)”: in data set [3], the global fragmentation rate of LmActin filaments by LmCofilin against RbActin filaments by mammalian cofilin-1, microfluidics-coupled TIRF microscopy came to 100 fold.

The substance “Leishmania major twinfilin (natural protein)” had a depolymerization rate of ADP-RbActin filaments with LmTwf in data set [4] of 0.5 subunits/s. In data set [5], this substance gave a barbed end depolymerization rate of ADP-LmActin filaments without actin monomers, with LmTwf (0.1 and 1 μM) against buffer only of 3 subunits/s; a barbed end polymerization rate with 1 μM LmActin, 1 μM LmProfilin and 0–4 μM LmTwf; net depolymerization above 0.2 μM LmTwf of 8 subunits/s.
